In the DeepSol protein solubility set:

Experiment: soluble on expression in E. coli; label from the status in PepcDB or PDB records
For “MSLKILMIMEEAEERRSLAEKFIENIKNVECFEASMGTEALFIMKKHTPDFVFLNSKLMDGTGFEYVNLLREVNCYAKFIFMGEDIEESITAFRFQAFYYLLRPFREEDLQFLLYRMGKEGHHHHHH”, the “soluble on expression in E. coli” value was “soluble”. With “MSLKINVADFHGTYLENPRTVNNFSLTGTDQKVFDNSSLQGRWTLVFFGFTNCGYLCPTTMAELGKMYRILEKKGVKNLPQVVMISIDPQRDSLDKLGSYVTSFHKSFYGARGEEDSIKSMTHEMGIAYAKINSKESSEPENYDIQHSGAVMLFNPQGELNAFFTTPHHADLLAKDYVLLVSEGHHHHHH” the “soluble on expression in E. coli” value was “soluble”. For “MSLKITGFRSLTTVHRWGRPVGDANGFVAQGVTEVPVLLVETDGGLTGVGLGAHGDAERVFPALDGQDPRAVTTLYDRMLAHTFKSGHAGTAFGTIGAFDTALWDLKAKMAGEPLWRTLGAADRFVPGYASGLDIALDEEELVALYSGWAARGFTGAKLKGGLDTERDIGRLRAVAEVLRPNTRSPALMLDVNESWGRHQAVRLLARIEDRVELAWIEEPVRRWDARGHRAVGRAGRTAVASGENLTGLEQFRPLLAADALQVVQAAGVWGITHFLRVATLAHGHDLPVSPVGYHANPLAHAAAAVPNHLVTEVQDIGTPAGLTVDQAIEDGGIVLGDAPGLGITVDESALAAPRQNAGWARPDGPHVRPRDAGLRLVPEPGPPGPAARVRAGTPSLGVPGPVHRPARSEHTERENTPEGHHHHHH”, the “soluble on expression in E. coli” value was “not soluble”. In the case of “MSLKITKVEVIPISTPMKRAQLMRGATLARIDGVLLKLHSDEGLVGIADAGDTSSWYRGETQDSITSMICDFFAPKVLLGEDPTKIEKIVGRMDILTRDNNQAKATVDFALHDLVGKRFGVPVYQLLGGKTIERIPLGLVLGAGEPEAVAEEALAVLREGFHFVKLKAGGPLKADIAMVAEVRRAVGDDVDLFIDINGAWTYDQALTTIRALEKYNLSKIEQPLPAWDLDGMARLRGKVATPIYADESAQELHDLLAIINKGAADGLMIKTQKAGGLLKAQRWLTLARLANLPVICGCMVGSGLEASPAAHLLAANDWIAQFPQENAGPLHIHDCLNSRDIDNDIALNVPRFEGGYLYPNDGPGLGIELNEDLVRRLVTPGKAARVVTAEGHHHHHH”, the “soluble on expression in E. coli” value is reported as “soluble”. For “MSLKKENSVEFKVSGRYALFSDPINRIGGEKFSYQVPTYQALKGILESVYWKPTLIWIIDEVRVMNLIKTQSQNIRPVNFSGTSKGTGTPLNTLSIYTYLTNVEYQVKAHFEWNYNRPNLEKDRNENKHYIVAKRMINRGGRRDVFLGTRECQAYVEPCKFGEGEGAYDHYGSLSFGLMFHGFDYPDETGEDKLTARLWSPVMNNGYIKFLRPDECTIKRELSSMKPKVFDENNFSGLEEFEEEGDIIELDSEGHHHHHH”, the “soluble on expression in E. coli” value was “soluble”. With “MSLKKFQHEFWTATSGDLTQRRTPLATPDYQSTSAAAVKIIIDPADRHQPWLGGGAAITDSAAYLLWSVMSAEQRRALLTELFDPDQGGFSSVRVPLGSCDFQSQDFYTYDDVPYGEHDQKLEQFSIGTGQPGAPDATKDLKHIVPVLQEILAINPAVKVIASPWSAPAWMKNTGHLTHGGHLRFGEFTGNGYTEENRFEYIYAQYFIRYIEAYQKLGIPIYGLTIQNEPSNAAHWPAMIWTVPQLADFGYRYLRPALNHSFPDTKLYLLDDSFHALTKPITAEVTPEQAAAFDGLAVHTYSGPYDNLYHANRAYPNWSTIMTERRCMMTDTPEEAAHIMFGIIGNWLVHNGLSMITLWNLALDERGLPNAADSTGREGVVTIDHTTGKVQRNLEYFMLRNFGQDVSVGATVIGSTNYTRDGYTGGLGSVAFLGTAGDIAAHLYNPTAQPIQAAVTINGNGANWQLVTVPPYGTVTLHKSDAPLNTTNVPVDDEFPLNPTPANHSDVAPGQHEGHHHHHH” the “soluble on expression in E. coli” value was “not soluble”. For “MSLKKILLLLANGFEAVEASVFTDVLGWNMLEGDGSTLVVTAGMHDKIKCTWNFTVLPEIKIKNVNVDDFEALVIPGGFEEAGFFIDAYSNSFLDLIRTFNAKGKIIASVCVGALSIGKSGILKGRTATTYNLNDRKRQYELSKFGVKILENQPIVIDKNVITSYNPSTAFNVAFTLLEMLTSTENCTKVKKLMGFIEGHHHHHH”, the “soluble on expression in E. coli” value was “soluble”. With “MSLKKIWLGILISVCTLLGADMSLWQKSTLNEIIKRGELRVGLEPGYLPFEMKDKKGNVIGFDVDLAREMAKAMGVKLKLVPTSWDGLIPGLVTEKFDIIISGMTISQERNLRVNFVEPYIVVGQSLLVKKGLEKGVKSYKDLDKPELTLVTKFGVSAEYAAKRLFKNAKLKTYDTEAEAVQEVLNGKADMFIFDLPFNVAFMAQKGQGYLVHLDTSLTYEPLGWAIKKGDPDFLNWLNHFLAQIKHDGSYDELYERWFVDTKWLEKIQEGHHHHHH” the “soluble on expression in E. coli” value was “soluble”. For “MSLKKVVIIGGGAAGMSAASRVKRLKPEWDVKVFEATEWVSHAPCGIPYVVEGLSTPDKLMYYPPEVFIKKRGIDLHLNAEVIEVDTGYVRVRENGGEKSYEWDYLVFANGASPQVPAIEGVNLKGVFTADLPPDALAIREYMEKYKVENVVIIGGGYIGIEMAEAFAAQGKNVTMIVRGERVLRRSFDKEVTDILEEKLKKHVNLRLQEITMKIEGEERVEKVVTDAGEYKAELVILATGIKPNIELAKQLGVRIGETGAIWTNEKMQTSVENVYAAGDVAETRHVITGRRVWVPLAPAGNKMGYVAGSNIAGKELHFPGVLGTAVTKFMDVEIGKTGLTEMEALKEGYDVRTAFIKASTRPHYYPGGREIWLKGVVDNETNRLLGVQVVGSDILPRIDTAAAMLMAGFTTKDAFFTDLAYAPPFAPVWDPLIVLARVLKEGHHHHHH”, the “soluble on expression in E. coli” value was “soluble”. In the case of “MSLKLITNYQFLTYDGNYFHAEVIQSVLAECERAGIEIDTVLLDRDHQNDMEKFWDQIRSGAAEGVILVGVDMPPMLEVVRALGVPVVMVNGNDPNCQFDSVMPAFRDGSRIATRYLIEQGHRDIVHVTHLYRPLIRRRLDGFREALEEAGLPFSFERNVIDISSGHFSAEQAASVVAERIANGTLNATALFCVSDYTAFGVVQGILRSGKTVPGDYSVASFDDLPLAQLCRPALTSVGVDRRALGRIAVERLLSRLESVEGPTLRIEVGARLTIRDSTRPEGHHHHHH”, the “soluble on expression in E. coli” value is reported as “soluble”. In the case of “MSLKLKEEERMTEMILEYKNQLCKQNKLIQEKKENVLKMIAEVKGKEQESEELTAKIQELKEEYARKRETISTANKANEERLKGLQKSADLYRDYLGLEIRKIHGNKLQFIFTSIDPKNPESPYMFSMSINEAKEYEVYDSSPHLECLAEFQEKVRKTNNFSAFLANIRKAFIAKVHN”, the “soluble on expression in E. coli” value is reported as “not soluble”. For “MSLKLVLHSAKRASAPYRVRIGLNLKGLAFELRPVDLVANAHQGEAYRALNAQALVPTLEVDGRPLTQSLAILEWLDETYPAHPLLPTDAFDRATVRAMAEIIACDIHPLNNLRILRQLTALEIDEPARNAWVARWIQDGFSALEPMIARHGQGYAFGDAPGLVDCLLVPQVFNANRFNVDLSPFPALEAAAAHARAHPAIAAAHPDHHPEEGHHHHHH”, the “soluble on expression in E. coli” value was “soluble”. In the case of “MSLKNENKMIIYQVFTRLFGNNNNHCIYNGDISQNGCGKMADFTAKALGEIKKLGATHIWYTGIIEHASQTDYRRYNIRPDHPAIVKGKAGSPYAIKDYYDVDPDLATDVPGRMKEFENLVSRTHRAGLKVIIDFVPNHVARQYHSDAQPDGTTQLGANDDPNYSFSPYNNFYYIPQSELHGQFDMTGNALEPYHEFPAKATGNNRFDAYPNINDWYETVKLNYGVDYQNGGTCHFSPTPDTWTKMLDILLFWSSKNIDGFRCDMAEMVPVEFWEWAIPQVKQEYPNIIFIAEVYNPHEYKNYLFRGKFDFLYDKVGLYDTLRNVACGYDSATAITRSWQSLGGIEKRMLNFLENHDEQRIASDFFAGDPRKGVPALIVSACMNTNPMMIYFGQEFGEMGMDSEGFSGRDGRTTIFDYWSVDTIRRWRNEGKFDGKMLTEEQKHLYAIYQRVLTLCNEEQAISNGVFFDLMYANENGWRFNEHKQYTFMRKYKNELLFIVVNFDNQPVNVAINVPSHAFDFLQIPQFDSYKAVDLLTDKVEEISLLPYKATEIALGAYTGKILKIKEGHHHHHH”, the “soluble on expression in E. coli” value is reported as “soluble”. For “MSLKNFINFHILISHSPSCLNRDDMNMQKSAVFGGERRVRVSSQSLKRAIRKSDYYRQHLGEASVRTKKLDELIAIINDRLAGRYDTDLLKKTVGLLAGKELSVEVATEGDAVAPWAIEEVAWFCEQVKRMVAQGQDEKALGKLLKNETAAMRQALASGVDIALSGRMATSGLMSELGKVDGALAVAHVLTTHSVDADIDWFTAVDDLQELGSGHLDTQEFSSGVFYRYASLNVKQLQENLGNAPREKALEIGAHLLHMLATIVPSAKQQSFAAHNLADLALVSFSDIPVSLANAFEKPVRSVNGSGFKEPSIAELHNYWQQIHTGYGLSERCGEFILGQSSVPEGITRKSTIEELKTWVMNNGEGEGHHHHHH”, the “soluble on expression in E. coli” value was “soluble”. With “MSLKNIKSNLGDYATLVFDCDGVLLDSNKVKTQAFYEAALPYGEMAAQALADHHVANGGISRYKKFSYFLEHIVAQHAEGPSLEHLLDRYAENVSSGLLSCDIASGIRELRAKTPNTRWLIVSGGDQTELREVFAQRKLAEIFDGGIFGSPDAKEEIIARELRSSNIAPPALFIGDSKYDFKAASESNLDFLFLSDWSEVKNWQQWCNENNIYALGNISSLLETCTHPEEGHHHHHH” the “soluble on expression in E. coli” value was “soluble”. For “MSLKNLHPIMLAGTGSDVGKSVIAAALCRIFKQDGYRPAPFKAQNMALNSYATPEGLEIGRAQAVQAEAAGVPCHTDMNPLLLKPSSDHTSQVVLNGRPIGNRNAFEYFRKEGREELRQEVNAAFDRLAARYNPIVMEGAGSISEINLRDTDLVNMPMACYADADVILVADIDRGGVFASVYGSVMLQTPEDKKRIKGVIINKFRGDIRLFESGVKMMEDLCGIPVLGIIPYYRNIHIEEEDSVGLDYKRMQAVEGKINIAVVLLRHLSNFTDFNRLERDERVHLYYTNNTEDLAKADIILLPGSKSTLDDLYELRRNGVAQAVLRAHREGVTVMGICGGYQLMGLEIHDPEGVEGEIRQLPGLGLLPVITTMQGEKVTRQVNFHFLENAETCQGYEIHMGETRPVPGEAVVPLNKLEDGGEDGCFVNQKCMGSYIHGILDNQAFIDYLLEPYAEKLECHTVLDYRTYKEEQYDKLAEHVRSHLNLPLLYQIMSGNEGHHHHHH”, the “soluble on expression in E. coli” value was “soluble”. In the case of “MSLKNSMTILDAIRALDDPTRLRIMRLLASMELAVGEVAQVLGQSQPRVSRHIKILCDSGLAERRKEGAWVFLRSSIGEGAESPLASALARLLAVAEHEDTAFGRRCSEDRQHLDAIRSSRESHALEWFARHADEWDELRSLHIADGPVEAALTEMLLALSGDGSLGRLLDVGTGTGRIAELFAPNAAHVVAFDKSPDMLRIARARLQHLPADAVELVQGDFAQLPFAARSFDTVLFHQVLHYAQAPEAVLAGAARVTAPGGRVAIVDFAAHEREDLRQTHAHARLGFSDAQIETMLLDAGFIPHETRALAGHELVVKLWTAVRREDSVTQLEPRQKSSSGKTEGHHHHHH”, the “soluble on expression in E. coli” value is reported as “soluble”. In the case of “MSLKQKLSHPYLAKHISAPKIDEDKLLLFHALFEEADIKNNDRENYIVTAMLVQSALDTHDEVTTARVIKRDENKNRQLTVLAGDYFSGLYYSLLSEMKDIYMIRTLATAIKEINEHKIRLYDRSFKDENDFFESVGIVESALFHRVAEHFNLPRWKKLSSDFFVFKRLMNGNDAFLDVIGSFIQLGKTKEEILEDCFKKAKNSIESLLPLNSPIQNILINRLKTISQDQTYHQKEGHHHHHH”, the “soluble on expression in E. coli” value is reported as “not soluble”. For “MSLKRIVVANDLVGVGKVALSASIPLMASCLLEQVLLPTCLLSSHTGGGQNPVKHTTSSILDVFLTDWDNKRIKFDGIFIGYFTTTRDGQKLLEWLSRKQLPLILDPIMADNGKLYQGFSQKHIEIMIKLTQKAELVLPNISEACLLTQTAYLAKNYDEEDIRQVARKLAKLGPKQVVISGISFEEGSIGFAYYQSDSDQLTFHFGKQFPYHFYGTGDIASAIITAGFYYQLPLTQILDLVVSFLEKVLQNTLTLKRDLILGVAYESHLNYLTEGHHHHHH”, the “soluble on expression in E. coli” value was “not soluble”.
